The target in the assay is rat α1B+β1b calcium channel (N-type calcium channel α1B subunit coexpressed with β1b subunit) (rat) (UniProt Q02294). Kind of assay: cell-based or functional assay.
Chain of rat α1B+β1b calcium channel (N-type calcium channel α1B subunit coexpressed with β1b subunit) (rat) (Q02294 whole entry, chain 1 of 2): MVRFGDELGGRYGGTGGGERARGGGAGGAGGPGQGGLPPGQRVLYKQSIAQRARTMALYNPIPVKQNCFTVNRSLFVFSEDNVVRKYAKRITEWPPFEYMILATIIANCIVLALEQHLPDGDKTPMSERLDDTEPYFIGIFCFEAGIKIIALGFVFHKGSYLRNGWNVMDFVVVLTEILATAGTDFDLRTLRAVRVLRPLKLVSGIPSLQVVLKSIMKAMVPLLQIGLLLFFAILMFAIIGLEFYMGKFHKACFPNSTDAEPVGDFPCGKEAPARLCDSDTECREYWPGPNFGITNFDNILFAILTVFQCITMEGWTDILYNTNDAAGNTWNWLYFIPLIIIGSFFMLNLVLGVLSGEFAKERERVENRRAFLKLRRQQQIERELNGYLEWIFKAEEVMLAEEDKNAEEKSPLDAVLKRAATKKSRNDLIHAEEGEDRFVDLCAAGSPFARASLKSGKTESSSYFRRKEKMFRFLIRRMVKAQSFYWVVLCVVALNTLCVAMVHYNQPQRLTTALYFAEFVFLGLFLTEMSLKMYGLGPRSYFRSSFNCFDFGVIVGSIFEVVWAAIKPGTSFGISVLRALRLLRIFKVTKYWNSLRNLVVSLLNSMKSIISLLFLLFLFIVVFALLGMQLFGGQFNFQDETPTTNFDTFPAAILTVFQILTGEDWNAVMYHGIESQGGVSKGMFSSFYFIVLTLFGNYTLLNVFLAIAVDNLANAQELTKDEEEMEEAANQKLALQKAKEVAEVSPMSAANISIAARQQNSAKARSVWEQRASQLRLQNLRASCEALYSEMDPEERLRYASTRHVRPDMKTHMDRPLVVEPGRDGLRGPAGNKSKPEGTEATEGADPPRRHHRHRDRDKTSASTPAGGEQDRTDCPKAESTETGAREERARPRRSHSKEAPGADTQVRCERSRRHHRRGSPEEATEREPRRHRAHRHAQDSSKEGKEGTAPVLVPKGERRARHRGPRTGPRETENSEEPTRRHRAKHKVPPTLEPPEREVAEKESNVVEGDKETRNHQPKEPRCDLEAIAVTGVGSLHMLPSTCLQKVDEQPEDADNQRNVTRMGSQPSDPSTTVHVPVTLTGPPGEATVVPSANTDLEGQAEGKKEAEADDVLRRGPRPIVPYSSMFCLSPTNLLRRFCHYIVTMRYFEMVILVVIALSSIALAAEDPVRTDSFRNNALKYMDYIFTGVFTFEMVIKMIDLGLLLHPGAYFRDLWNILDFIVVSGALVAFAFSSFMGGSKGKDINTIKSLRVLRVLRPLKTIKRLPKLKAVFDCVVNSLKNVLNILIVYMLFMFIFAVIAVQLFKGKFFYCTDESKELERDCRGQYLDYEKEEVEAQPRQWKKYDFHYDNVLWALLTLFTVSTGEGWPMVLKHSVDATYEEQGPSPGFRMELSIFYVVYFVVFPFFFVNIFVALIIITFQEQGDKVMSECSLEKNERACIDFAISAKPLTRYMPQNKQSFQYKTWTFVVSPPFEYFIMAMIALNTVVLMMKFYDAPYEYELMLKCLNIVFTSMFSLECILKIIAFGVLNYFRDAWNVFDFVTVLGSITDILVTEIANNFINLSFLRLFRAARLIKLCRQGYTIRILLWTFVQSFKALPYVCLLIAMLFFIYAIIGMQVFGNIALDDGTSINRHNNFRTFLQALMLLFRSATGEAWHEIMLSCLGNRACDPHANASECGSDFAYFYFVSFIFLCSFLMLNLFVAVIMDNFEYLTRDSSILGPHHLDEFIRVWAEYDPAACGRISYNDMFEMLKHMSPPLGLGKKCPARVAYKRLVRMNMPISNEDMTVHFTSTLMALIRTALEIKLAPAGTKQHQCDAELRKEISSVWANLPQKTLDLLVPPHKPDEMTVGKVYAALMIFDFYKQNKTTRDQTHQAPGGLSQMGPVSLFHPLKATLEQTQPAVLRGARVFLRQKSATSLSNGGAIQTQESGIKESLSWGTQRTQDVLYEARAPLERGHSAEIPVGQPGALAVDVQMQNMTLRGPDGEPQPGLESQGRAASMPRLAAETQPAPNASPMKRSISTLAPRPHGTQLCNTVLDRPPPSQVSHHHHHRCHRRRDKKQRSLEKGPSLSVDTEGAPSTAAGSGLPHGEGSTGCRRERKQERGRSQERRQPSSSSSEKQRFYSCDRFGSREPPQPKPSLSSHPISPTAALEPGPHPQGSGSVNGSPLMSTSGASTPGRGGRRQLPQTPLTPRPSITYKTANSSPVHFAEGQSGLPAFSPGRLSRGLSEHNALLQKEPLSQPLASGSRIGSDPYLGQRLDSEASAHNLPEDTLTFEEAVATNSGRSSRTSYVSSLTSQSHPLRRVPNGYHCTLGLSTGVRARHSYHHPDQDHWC
Chain of rat α1B+β1b calcium channel (N-type calcium channel α1B subunit coexpressed with β1b subunit) (rat) (P54283 whole entry, chain 2 of 2, further chain): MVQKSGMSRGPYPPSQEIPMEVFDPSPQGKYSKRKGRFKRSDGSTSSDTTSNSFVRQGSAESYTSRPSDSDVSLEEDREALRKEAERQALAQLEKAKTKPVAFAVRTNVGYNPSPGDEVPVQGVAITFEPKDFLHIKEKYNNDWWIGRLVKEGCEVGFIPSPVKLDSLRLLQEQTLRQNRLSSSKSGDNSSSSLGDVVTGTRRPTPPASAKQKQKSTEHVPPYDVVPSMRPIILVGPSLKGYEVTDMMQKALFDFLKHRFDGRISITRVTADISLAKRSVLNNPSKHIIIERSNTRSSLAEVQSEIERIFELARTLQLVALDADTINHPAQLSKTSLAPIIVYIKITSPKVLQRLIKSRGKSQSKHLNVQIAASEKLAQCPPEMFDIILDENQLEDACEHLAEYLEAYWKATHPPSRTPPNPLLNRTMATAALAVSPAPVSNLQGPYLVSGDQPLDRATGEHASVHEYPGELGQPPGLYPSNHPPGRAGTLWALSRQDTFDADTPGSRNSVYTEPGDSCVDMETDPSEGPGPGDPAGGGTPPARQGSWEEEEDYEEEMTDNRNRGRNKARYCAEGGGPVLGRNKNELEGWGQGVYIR

On to “rat brain α2δ-2 calcium channel subunit (from UniProt Q8CFG6 19-1157)”, for which the average current density (Ipeak/cell capacitance), whole-cell patch clamp, fold increase on coexpression is 4 fold.

The values are drawn from patent US20050095678A1.
